# Laboratory results taken from US20130115256A1 (published 2013).
# Where no end group is shown, it is not given here.
# B1: MMI-0100 (YARAAARQARAKALARQLGVAA; SEQ ID NO: 1) (peptide)
# peptide: YARAAARQARAKALARQLGVAA
# modifications: not fully specified (C-terminus)
# Columns and labels:
# Test in all cases: cell-based or functional assay
# [1] = molecular target: T1, MKK4 (Mitogen-Activated Protein Kinase Kinase 4) (UniProt P45985 1-399)
# T1 sequence: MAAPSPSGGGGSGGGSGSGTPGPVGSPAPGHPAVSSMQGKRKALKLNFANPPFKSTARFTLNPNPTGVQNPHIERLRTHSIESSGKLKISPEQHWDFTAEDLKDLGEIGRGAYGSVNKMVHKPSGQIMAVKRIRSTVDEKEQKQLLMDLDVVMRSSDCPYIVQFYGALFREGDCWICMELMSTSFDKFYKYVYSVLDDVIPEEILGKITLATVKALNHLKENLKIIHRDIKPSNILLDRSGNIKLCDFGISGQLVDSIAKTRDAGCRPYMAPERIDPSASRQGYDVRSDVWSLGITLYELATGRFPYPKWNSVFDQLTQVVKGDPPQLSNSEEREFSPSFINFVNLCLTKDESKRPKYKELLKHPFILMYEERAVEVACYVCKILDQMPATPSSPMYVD
# [2] = molecular target: T2, PRAK (p38-Regulated/Activated Protein Kinase) (UniProt Q8IW41 1-473)
# T2 sequence: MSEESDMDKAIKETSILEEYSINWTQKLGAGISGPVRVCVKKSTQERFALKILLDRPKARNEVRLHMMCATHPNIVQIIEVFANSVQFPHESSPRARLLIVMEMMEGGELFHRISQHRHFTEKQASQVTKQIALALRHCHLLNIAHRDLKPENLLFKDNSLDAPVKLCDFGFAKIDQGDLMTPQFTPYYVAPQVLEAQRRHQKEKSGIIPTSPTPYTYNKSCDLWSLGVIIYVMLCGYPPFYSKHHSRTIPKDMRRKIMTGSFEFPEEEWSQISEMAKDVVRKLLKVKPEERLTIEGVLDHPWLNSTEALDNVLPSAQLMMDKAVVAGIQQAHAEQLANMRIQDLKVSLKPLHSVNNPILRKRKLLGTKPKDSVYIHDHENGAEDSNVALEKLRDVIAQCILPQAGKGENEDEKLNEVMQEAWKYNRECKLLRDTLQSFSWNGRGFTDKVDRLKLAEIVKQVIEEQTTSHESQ
# [3] = molecular target: MEK1 (Meiosis-specific serine/threonine protein kinase) (UniProt Q02750 1-393)
# [4] = molecular target: T3, MKK6 (Mitogen-Activated Protein Kinase Kinase) (UniProt P52564 1-334)
# T3 sequence: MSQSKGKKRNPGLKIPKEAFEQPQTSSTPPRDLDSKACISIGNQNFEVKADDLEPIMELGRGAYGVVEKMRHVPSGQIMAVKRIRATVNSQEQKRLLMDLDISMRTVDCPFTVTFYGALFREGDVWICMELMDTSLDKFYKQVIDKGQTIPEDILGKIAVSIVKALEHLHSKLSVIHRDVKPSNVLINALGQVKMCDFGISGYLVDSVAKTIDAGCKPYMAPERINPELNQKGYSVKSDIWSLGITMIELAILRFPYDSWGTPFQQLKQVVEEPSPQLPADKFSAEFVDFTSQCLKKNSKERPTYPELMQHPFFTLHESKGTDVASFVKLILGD
# [5] = molecular target: p38 MAPK (p38 Mitogen-Activated Protein Kinase)
# [6] = molecular target: JNK (c-Jun N-terminal Kinase)
binder,measurement,setting,value
B1,"Percent Activity (radiometric kinase assay, peptide at 100 µM)",[1],90 % activity
same,"Percent Activity (radiometric kinase assay, peptide at 100 µM)",[2],100 % activity
same,"Percent Activity (radiometric kinase assay, peptide at 100 µM)",[3],68 % activity
same,"Percent Activity (radiometric kinase assay, peptide at 100 µM)",[4],50 % activity
same,"Percent Activity (radiometric kinase assay, peptide at 100 µM)",[5],60 % activity
same,"Percent Activity (radiometric kinase assay, peptide at 100 µM)",[6],92 % activity
